Target: VqERF1B-mCherry (Vitis quinquangularis accession 'Danfeng-2')
Test: FRET or BRET

FRET efficiency: 32%
Substance: VqERF062-GFP (natural protein)

Source: paper PMC12120875
